This assay deals with Prp43 (yeast) (UniProt P53131).

The text below walks through data of publication PMC5397206.

Chain of UniProt P53131 (P53131 whole entry): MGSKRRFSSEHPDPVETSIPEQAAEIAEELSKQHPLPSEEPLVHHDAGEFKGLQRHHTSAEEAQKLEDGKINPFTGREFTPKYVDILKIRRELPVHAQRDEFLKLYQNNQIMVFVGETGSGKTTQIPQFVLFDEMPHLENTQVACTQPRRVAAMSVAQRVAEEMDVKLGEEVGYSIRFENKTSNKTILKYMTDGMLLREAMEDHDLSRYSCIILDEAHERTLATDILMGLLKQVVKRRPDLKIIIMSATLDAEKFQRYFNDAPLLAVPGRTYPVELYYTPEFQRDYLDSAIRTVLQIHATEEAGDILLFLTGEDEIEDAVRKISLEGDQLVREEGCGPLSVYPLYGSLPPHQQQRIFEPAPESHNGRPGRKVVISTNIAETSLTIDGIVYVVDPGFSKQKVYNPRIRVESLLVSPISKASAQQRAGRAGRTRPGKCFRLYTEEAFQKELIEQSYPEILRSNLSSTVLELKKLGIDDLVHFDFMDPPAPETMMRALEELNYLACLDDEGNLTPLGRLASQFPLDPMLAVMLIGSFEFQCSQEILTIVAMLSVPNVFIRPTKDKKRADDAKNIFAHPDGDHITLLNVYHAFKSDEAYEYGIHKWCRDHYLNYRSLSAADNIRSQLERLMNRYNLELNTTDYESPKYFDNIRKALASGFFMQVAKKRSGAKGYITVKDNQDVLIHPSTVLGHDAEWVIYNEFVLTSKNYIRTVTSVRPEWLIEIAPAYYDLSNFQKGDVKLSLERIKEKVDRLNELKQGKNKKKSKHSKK

B1: Pfa1 full-length (Pfa1FL) (natural protein)
chain: MAKRHSHYQGSRRRHARGSNSKKAGRGNAKGIQGRKIKKKPTPTNSWHNSSIPLGEGDLDDVGADFNPGRAFISPKTIEDYYFGRDAKSRSMKMGGLRPGNRYDSSTDLQAGRAAFRKRPMQFVKAKEVYDPSHNMIQKLRAKNETKNSEEIVEREADVFEEPGKMTSDVEYINNEDSENEDDDSQNSPSTDHSLSSNESKVEDGDLFFVDEEAQQSPDLTKIKRVCIEEIARPREVAIEFDPILTIGKVELSVSEGNESKEISVDVPNKGNKTYHPFAGYISNVLHGMHTSDSDNDELDYEIETENNSEPLYESSASSEVDQGFNYVGQRHNSRADNNLLPSPSPQLTEDIKCLSINGTKTFEGNNDNLPSPASEELEFGFKEEDFVINTNDIVVSNIRMGGVDNSYYLRCYRLLGDYDFHWIDQDLLTDFVVDELGLPEDRLPAYLNFIKNSLIPKIEPAEPTYSDIPISDSSDEGDSYEGDSYEDDEDMASSVVHSDIEEGLDDLIAYTLKHDTERFKTFETKSLETKGKGKKKKLLIDDALALDTETLETLQSKFSKRIETKAKKRKAKEDFIDQENRNSNDMLKKYPYGLHIQNIKDEFESFLSRNNDRLTFPPLDPHGNKTVMKIAKHYNMKSSKIGKANHTSVVVEKIKKTKWSSPNYSLIDQLMRQRPVFMRIDIRRPREEQAAFERTKTIRGKFHVKEGEIVGQNAPEIGNENIGRRMLEKLGWKSGEGLGIQGNKGISEPIFAKIKKNRSGLRHSES
Molecule B1 returned a catalytic efficiency of Prp43 ATPase (kcat/KM), Pfa1FL versus Pfa1GP of 3 fold.
